Numbered stars: 1 amine (or outer) side, 2 acyl side, 3 side chain; on linkers, the order of the positions; unused ones are H or OH. Bridge positions count the residues as written; N and C are the ends. Square brackets hold non-standard residues; d marks the D form. Ends that are not written are not given here. Peptide text beside a SMILES is read from it. ξ: configuration not given here. ξαMeNle(6-ylidene) = CC(CCCC=[*:3])(N[*:1])C(=O)[*:2]
Assays:
MDCK and HEK293 cells [1] = experiment: Cell toxicity: release of LDH in the medium (necrosis); format: cell-based
Method: (§1) (A and B) MDCK and HEK293 cells were incubated as described in previous figures with TAT-F1 or TAT-P5. Cell toxicity was then assessed by measuring release of LDH in the medium and caspase 3/7 activity in cell extracts. […] Direct lysis of cells served as a positive control in (A) whereas active caspases were used as controls in (B).
as §1, with “stapled-P5.” for “TAT-F1 or TAT-P5.”, “for LDH release” for “in (A)”, “used” for “used as controls”, “caspase assays.” for “(B).”
(§2) The potency of GEF-H1 inhibitors was analysed in cell-based assays to determine effectiveness of inhibition of GEF-H1 signalling and specificity for GEF-H1, and in cell-based assays modelling epithelial degeneration or inflammatory disease. Potential toxicity of the inhibitors was determined by measuring apoptosis (Caspase3/7 activation) and necrosis (release of […]).

MDCK and HEK293 cells [2] = experiment: Cell toxicity: caspase 3/7 activity in cell extracts (apoptosis); format: cell-based
Method: as §1
as §1, with “stapled-P5.” for “TAT-F1 or TAT-P5.”, “for LDH release” for “in (A)”, “used” for “used as controls”, “caspase assays.” for “(B).”
as §2

GEF-H1 [3] = target: T1, GEF-H1 (Canis lupus familiaris, UniProt Q865S3); experiment: GEF-H1 overexpression-induced cell spreading / cell shape morphological assay; format: cell-based
T1 sequence (Q865S3 1-986): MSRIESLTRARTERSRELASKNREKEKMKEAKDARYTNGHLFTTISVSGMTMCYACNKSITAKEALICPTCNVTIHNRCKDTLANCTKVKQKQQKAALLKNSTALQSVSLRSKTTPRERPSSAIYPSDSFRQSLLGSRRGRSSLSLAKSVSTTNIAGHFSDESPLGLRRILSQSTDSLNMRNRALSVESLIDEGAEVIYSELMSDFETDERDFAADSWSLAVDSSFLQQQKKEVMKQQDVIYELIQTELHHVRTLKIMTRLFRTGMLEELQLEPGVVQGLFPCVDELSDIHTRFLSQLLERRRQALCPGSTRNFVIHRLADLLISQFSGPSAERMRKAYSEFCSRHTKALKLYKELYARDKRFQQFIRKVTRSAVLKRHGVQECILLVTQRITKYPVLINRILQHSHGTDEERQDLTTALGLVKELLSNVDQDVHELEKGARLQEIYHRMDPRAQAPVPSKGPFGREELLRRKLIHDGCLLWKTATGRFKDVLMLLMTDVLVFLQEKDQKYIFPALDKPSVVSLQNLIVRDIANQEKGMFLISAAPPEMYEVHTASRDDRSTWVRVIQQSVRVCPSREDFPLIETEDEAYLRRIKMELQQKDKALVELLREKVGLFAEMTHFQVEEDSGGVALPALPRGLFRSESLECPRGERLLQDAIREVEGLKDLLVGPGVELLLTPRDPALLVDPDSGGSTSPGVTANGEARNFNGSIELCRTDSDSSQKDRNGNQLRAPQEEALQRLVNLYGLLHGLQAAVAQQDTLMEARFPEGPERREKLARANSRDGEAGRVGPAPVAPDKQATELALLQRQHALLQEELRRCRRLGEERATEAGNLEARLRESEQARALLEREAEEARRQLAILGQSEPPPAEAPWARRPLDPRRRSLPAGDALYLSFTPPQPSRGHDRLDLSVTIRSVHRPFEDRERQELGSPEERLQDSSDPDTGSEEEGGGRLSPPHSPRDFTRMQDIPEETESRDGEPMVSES

[4] = tested on: interaction between RhoA and constitutively active GEF-H1 (DH/PH module); experiment: GST-RhoA pulldown of constitutively active GEF-H1 from cell extracts; format: binding; conditions: GST-RhoA pull down, FIG. 5
Method: Recombinant fusion proteins of GST and RhoA were used for pulldown of constitutively active GEF-H1 from cell extracts. (A) Candidate peptide inhibitors were added to the pulldown. (B, C) Recombinant fragments from the CTD of GEF-H1 were added. Note, the further analysed P5 and F1 peptide inhibitors both block the interaction between RhoA and active GEF-H1.
2) Active GEF-H1 binds with high affinity to nucleotide-free and GDP-bound RhoA, its physiological substrate. […] Thus, both F1 and P5 block GEF-H1 function by the same mechanism. Based on these functional and biochemical assays (FIGS. 4 and 5), F1 and P5 were selected for further analysis and refinement. Membrane permeable derivatives were synthesized for both inhibitors: TAT-F1 and TAT-P5.
The P5 sequence and modified versions thereof, are derived from the interaction surface of RhoA with the active site of GEF-H1 (i.e., the DH domain). […] The same is true for the F1 sequence, as it blocks binding of RhoA to a DH/PH domain construct (FIG. 5).

GEF-H1 [5] = experiment: SRE / αSMA promoter luciferase reporter gene assays of GEF-H1 signalling; format: cell-based; conditions: GEF-H1 overexpression
p114RhoGEF = target: T2, p114RhoGEF (Homo sapiens, UniProt Q6ZSZ5); experiment: p114RhoGEF-induced cell rounding in MDCK cells (specificity); format: cell-based
T2 sequence (Q6ZSZ5 1-1015 isoform Q6ZSZ5-2): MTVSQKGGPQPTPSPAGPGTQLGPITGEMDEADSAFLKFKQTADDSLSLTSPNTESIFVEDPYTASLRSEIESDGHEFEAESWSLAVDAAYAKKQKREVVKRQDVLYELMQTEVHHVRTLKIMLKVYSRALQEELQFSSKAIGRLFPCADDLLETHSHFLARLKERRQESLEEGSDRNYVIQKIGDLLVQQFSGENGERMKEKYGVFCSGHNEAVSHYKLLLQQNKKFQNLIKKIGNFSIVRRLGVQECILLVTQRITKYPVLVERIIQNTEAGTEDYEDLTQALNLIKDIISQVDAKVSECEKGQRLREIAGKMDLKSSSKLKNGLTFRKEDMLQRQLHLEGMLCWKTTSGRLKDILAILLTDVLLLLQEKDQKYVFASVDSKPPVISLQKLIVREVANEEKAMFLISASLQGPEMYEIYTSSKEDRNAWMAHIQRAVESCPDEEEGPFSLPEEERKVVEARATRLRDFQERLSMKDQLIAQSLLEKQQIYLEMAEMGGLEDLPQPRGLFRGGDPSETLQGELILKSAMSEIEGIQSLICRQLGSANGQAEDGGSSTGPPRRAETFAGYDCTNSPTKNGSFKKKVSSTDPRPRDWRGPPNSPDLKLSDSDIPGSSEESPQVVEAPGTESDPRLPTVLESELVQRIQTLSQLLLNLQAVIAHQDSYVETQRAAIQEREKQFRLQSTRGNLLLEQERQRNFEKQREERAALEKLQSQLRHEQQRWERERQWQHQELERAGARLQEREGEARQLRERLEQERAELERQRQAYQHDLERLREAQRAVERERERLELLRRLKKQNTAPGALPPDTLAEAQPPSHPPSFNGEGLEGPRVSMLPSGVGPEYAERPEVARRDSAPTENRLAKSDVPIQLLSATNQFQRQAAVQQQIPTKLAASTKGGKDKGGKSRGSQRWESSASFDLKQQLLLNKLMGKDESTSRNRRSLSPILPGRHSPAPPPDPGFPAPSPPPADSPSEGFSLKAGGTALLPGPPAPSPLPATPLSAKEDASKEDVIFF

active Dbl = experiment: αSMA / SRE reporter assays in cells overexpressing active Dbl (specificity); format: cell-based; conditions: TAT-F1 4 μM
[6] = tested on: Human primary endothelial cells; experiment: LPS-induced endothelial activation; format: cell-based
Excerpt: GEF-H1 inhibitors prevent endothelial inflammatory responses induced by LPS. Human primary endothelial cells were stimulated with LPS in the presence or absence of the indicated GEF-H1 inhibitors. […] TAT-P5 and TAT-F1 attenuate cytoskeletal remodelling, ICAM1 induction, and attenuate loss of barrier function.
8) GEF-H1 regulates inflammatory responses in various cell types. […] Similarly, cytoskeletal remodeling and cell junction disruption was also attenuated in TNFα and Thrombin-stimulated endothelial cells.

[7] = tested on: primary retinal pigment epithelial (RPE) cells; experiment: TGF-β stimulation of primary RPE cells (αSMA induction, junctional markers); format: cell-based
Method: Inhibition of TGF-β signaling in primary retinal pigment epithelial (RPE) cells. (A, B) Primary RPE cells were incubated with TAT-P5 or TAT-F1 and stimulated with TGF-β for five days. (A) αSMA and, as a loading control, tubulin expression were analysed by immunoblotting. […] (B) Expression of the junctional marker ZO-1 and tubulin were determined. (C) Primary RPE cells were incubated with TGF-β as in (A) but with stapled-P5, and expression of αSMA positive cells was analysed by immunofluorescence.
7) The inventors next tested the inhibitors in cell-based disease models. GEF-H1 drives fibrotic and degenrative responses in the RPE, which can be modelled by treating primary RPE cells with TGF-β.

[8] = stapled-P5, different concentrations analysed

CC(C)C[C@H](NC(=O)[C@@H](N)CCCNC(=N)N)C(=O)NC1(C)CCCC=CCCCC(C)(C(=O)N2CCC[C@H]2C(=O)N[C@@H](CC(=O)O)C(=O)N[C@H](C(=O)O)[C@@H](C)O)NC(=O)[C@H](CO)NC(=O)[C@H](C)NC(=O)[C@@H]2CCCN2C1=O (stereo partly shown) [stapled-P5, RL(X)PAS(X)PDT; X = 2,(4, pentenyl)alanine] (H-RL[ξαMeNle(6-ylidene)]PAS[ξαMeNle(6-ylidene)]PDT-OH; staple 3-7)
cell toxicity by release of LDH in the medium (MDCK and HEK293 cells [1]; [8]): No significant cell toxicity | cell toxicity by caspase 3/7 activity in cell extracts (MDCK and HEK293 cells [2]; [8]): No significant cell toxicity

GQEDYDRLRPASYPDTDVI (P5 amino acid sequence) [Peptide P5]
inhibition of overexpressed GEF-H1, comparison of P1 to P5 (GEF-H1 [3]; morphological assay (cell spreading) and SRE-driven reporter assay, peptide transfection): most effective inhibitor | inhibition of the interaction between RhoA and constitutively active GEF-H1 [4]: inhibited the interaction

GRKKRRQRRRPWQGQEDYDRLRPASYPDTDVI [TAT-P5]
cell toxicity by release of LDH in the medium (MDCK and HEK293 cells [1]; TAT-P5 5-20 μM): No significant cell toxicity | cell toxicity by caspase 3/7 activity in cell extracts (MDCK and HEK293 cells [2]; TAT-P5 5-20 μM): No significant cell toxicity

B1: TAT-F1: F1 fused to a TAT sequence to render it membrane-permeable, SEQ ID NO: 7 (protein)
chain: MGGYGRKKRRQRRRGGGSGYPYDVPDYAGGSSSREDFPLIETEDEAYLRRIKMELQQKDKALVELLREKVGLFAEMTHFQVEEDSGGVALPALPRGLFRSESLECPRGERLLQDAIREVEGLKDLLVGPGVELLLTPRDPALLVDPDSGGSTSPGVTANGEARN
modifications: TAT-F1 amino acid sequence
transcription of the SRE-containing alpha-smooth muscle actin (αSMA) promoter (GEF-H1 [5]): inhibit transcription | inhibition of p114RhoGEF overexpression-induced cell rounding (p114RhoGEF): not inhibited | transcription from the αSMA promoter in cells overexpressing active Dbl (active Dbl): do not inhibit transcription | LPS-induced ICAM1 induction ([6]; immunoblotting): attenuate | LPS-induced cytoskeletal remodelling ([6]; immunofluorescence): attenuate | LPS-induced loss of barrier function ([6]; paracellular permeability): attenuate | cell toxicity by release of LDH in the medium (MDCK and HEK293 cells [1]; TAT-F1 1-4 μM): No significant cell toxicity | cell toxicity by caspase 3/7 activity in cell extracts (MDCK and HEK293 cells [2]; TAT-F1 1-4 μM): No significant cell toxicity | downregulation of junctional markers ([7]; primary RPE cells treated with TGF-β, FIG. 11): inhibit downregulation | TGF-β-induced induction of αSMA, a marker of epithelial fibrosis ([7]; primary RPE cells, FIG. 11): effectively suppress | TGF-β induced αSMA expression normalised by tubulin (immunoblot) ([7]; primary RPE cells, TGF-β for five days): concentration-dependent repression

B2: F1: Fragment 1 of the auto-inhibitory C-terminal domain (CTD) of GEF-H1, SEQ ID NO: 2 (protein)
chain: SREDFPLIETEDEAYLRRIKMELQQKDKALVELLREKVGLFAEMTHFQVEEDSGGVALPALPRGLFRSESLECPRGERLLQDAIREVEGLKDLLVGPGVELLLTPRDPALLVDPDSGGSTSPGVTANGEARN
modifications: F1 amino acid sequence
auto-inhibitory activity / block of GEF-H1 function by CTD fragments (GEF-H1 [3]; FIGS. 4 and 5 (cell spreading, SRE reporter, pulldown)): blocks GEF-H1 function | inhibition of the interaction between RhoA and constitutively active GEF-H1 [4]: inhibited the interaction
